Data on one substance can be found in paper PMC6404747.

This test has as its target Smurf (UniProt Q9V853). Briefly: co-IP Myc-Smo / Fg-Smurf. As to conditions: reference: wild-type Myc-Smo plus Hh; sites S667,S687,S740.

As for “Smoothened (Smo) (from UniProt P91682) Myc-SmoSA plus Hh”, the “binding against the reference” value is recorded as “stronger”.
